Test results reported in patent US12540197B2, “Anti-tissue factor antibodies and antibody conjugates, compositions comprising anti-tissue factor antibodies or antibody conjugates, and methods of making and using anti-tissue factor antibodies and antibody conjugates” (SUTRO BIOPHARMA, INC., priority 2023, dated 2026).
Numbering of substitutions follows the chain as printed.

B1: 37 (antibody)
heavy: MEVQLVESGGGLVQPGGSLRLSCAASGFSISSYDMSWVRQAPGKGLEWIGIIGSNGRTYYPDSVKGRFTISRDNSKNTVTLQMNSLRAEDTAVYYCARGLYDGTGNIWGQGTLVTVSSASTKGPSVFPLAPSSKSTSGGTAALGCLVKDYFPEPVTVSWNSGALTSGVHTFPAVLQSSGLSLSSVVTVPSSSLGTQTYICNVNHKPSNTKVDKKVEPKSCDKTHTCPPCPAPELLGGPSVFLFPPKPKDTLMISRTPEVTCVVVDVSHEDPEVKFNWYVDGVEVHNAKTKPREEQYNSTYRVVSVLTVLHQDWLNGKEYKCKVSNKALPAPIEKTISKAKGQPREPQVYTLPPSREEMTKNQVSLTCLVKGFYPSDIAVEWESNGQPENNYKTTPPVLDSDGSFLYSKLTVDKSRWQQGNVFSCSVMHEALHNHYTQKSLSLSPGK
light: MELVMTQSPPTLSLSPGERVTLSCRASQSVYGNNWLSWYQQKPGQAPRLLIYGASKLATSIPARFSGSGSGTQFTLTISSLQPEDFAVYYCQGTYYSGDWYFAFGQGTKVEIKRTVAAPSVFIFPPSDEQLKSGTASVVCLLNNFYPREAKVQWKVDNALQSGNSQESVTEQDSKDSTYSLSSTLTLSKADYEKHKVYACEVTHQGLSSPVTKSFNRGEC
modifications: pAzMeF at Y180/F404; drug conjugate
B2: 47 (antibody)
heavy: B1 heavy
light: MDLQMTQSPSSLSASVGDRVTITCRASQSVYGNNWLSWYQQKPGKAPKLLIYGASKLASGVPSRFSGSGSGTQFTLTISSLQPEDFATYYCQGTYYSGDWYFAFGQGTKVEIKRTVAAPSVFIFPPSDEQLKSGTASVVCLLNNFYPREAKVQWKVDNALQSGNSQESVTEQDSKDSTYSLSSTLTLSKADYEKHKVYACEVTHQGLSSPVTKSFNRGEC
modifications: pAzMeF at Y180/F404; conjugate
B3: 48 (antibody)
heavy: B1 heavy with E2Q, L5V, Q14K, V38I, P61A, D73N, N74T, S75N, K76E, T80Y
light: B2 light with L3I, R25Q, Q73D, Q106G
modifications: pAzMeF at Y180/F404; conjugate
B4: 49 (antibody)
heavy: MQVQVQESGPGLVKPPGTLSLTCAVSGFSLSYYGVSWVRQPPGKGLEWIGTIDSSGRTYYNPSLKSRVTISNDNAPNTVSLKLSSVTAADTAVYYCARDFYGWNSGALDIWGQGTLVTVSSASTKGPSVFPLAPSSKSTSGGTAALGCLVKDYFPEPVTVSWNSGALTSGVHTFPAVLQSSGLSLSSVVTVPSSSLGTQTYICNVNHKPSNTKVDKKVEPKSCDKTHTCPPCPAPELLGGPSVFLFPPKPKDTLMISRTPEVTCVVVDVSHEDPEVKFNWYVDGVEVHNAKTKPREEQYNSTYRVVSVLTVLHQDWLNGKEYKCKVSNKALPAPIEKTISKAKGQPREPQVYTLPPSREEMTKNQVSLTCLVKGFYPSDIAVEWESNGQPENNYKTTPPVLDSDGSFLYSKLTVDKSRWQQGNVFSCSVMHEALHNHYTQKSLSLSPGK
light: MDLQLTQSPSTLSASVGDRVTITCRASQSVYSNKYLSWYQQKPGKAPKLLIYKASTLASGVPSRFSGSGSGTEFTLTISSLQPDDFATYYCAAAYSDDSDTAFGQGTKVEIKRTVAAPSVFIFPPSDEQLKSGTASVVCLLNNFYPREAKVQWKVDNALQSGNSQESVTEQDSKDSTYSLSSTLTLSKADYEKHKVYACEVTHQGLSSPVTKSFNRGEC
modifications: pAzMeF at Y180/F404; conjugate

tested on: HEK293T; test: FACS cell-binding assay on parental HEK293T cells; conditions: Table 16, parental cells
Source text: HEK293T, BxPC3 cells (TF positive) and NCI-H1703 (TF negative) cells were obtained from ATCC (American Type Culture Collection) and maintained in DMEM:F12 (1:1), high glucose (Corning) supplemented with 10% heat-inactivated fetal bovine serum (ThermoScientific), 1× Penicillin/Streptomycin (Corning) and 2 mmol glutamax (Thermo Fisher Scientific). To generate cells that stably expressing human tissue factor (HEK293T-humanTF) or cynomolgus tissue factor (HEK293T-cynoTF), HEK293T cells were transfected with plasmid vectors that contain the corresponding protein sequence and stable clones were selected with puromycin.
For a fluorescence-activated cell sorting (FACS) cell-binding assay, cells were collected by Accutase and counted by the Vi-CELL Cell Viability Analyzersharvested and, then re-suspended in FACS buffer (DPBS buffer supplemented with 1% bovine serum albumin). A total of 200,000 cells in 100 μL were incubated on ice with 100 μL of anti-TF antibodies in each well of a 96-well plate. Cells were washed twice with ice-cold FACS buffer and then incubated on ice for 60 mins with 5 μg/mL Alexa 647-labeled donkey anti-human Fc antibody (Jackson ImmunoResearch). Unstained cells and cells stained with secondary antibody alone were used as controls. Cells were washed twice with FACS buffer and analyzed using a BD FACS Canto system. Geometric mean fluorescence intensities (MFI) were fitted using non-linear regression analysis with one site specific binding equation on GraphPad Prism (GraphPad Software; La Jolla, CA).

**Q.** For B1, which “HEK293T Bmax (MFI)” value is on record?
**A.** 1062 MFI

**Q.** B2 was tested. Which “HEK293T Bmax (MFI)” value did it give?
**A.** 1285 MFI

**Q.** B3 was tested. Which “HEK293T Bmax (MFI)” value did it give?
**A.** 1232 MFI

**Q.** With B4 as the molecule, how does the “HEK293T Bmax (MFI)” value read?
**A.** 1366 MFI

target: T1, human TF (Homo sapiens, UniProt P13726); test: Biacore off-rate and kinetic binding, human TF; conditions: Table 12; 25° C., 1:1 Langmuir
T1 construct: purchased Lake Pharma
T1 sequence (P13726 33-295): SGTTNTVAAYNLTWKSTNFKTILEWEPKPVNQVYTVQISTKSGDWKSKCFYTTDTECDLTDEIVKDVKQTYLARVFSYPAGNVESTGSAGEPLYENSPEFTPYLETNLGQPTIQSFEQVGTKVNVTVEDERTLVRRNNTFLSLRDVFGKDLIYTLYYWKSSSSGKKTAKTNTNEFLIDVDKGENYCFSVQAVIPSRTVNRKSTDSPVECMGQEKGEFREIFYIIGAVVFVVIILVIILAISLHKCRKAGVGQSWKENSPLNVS
Method: (§1) Anti-Fc polyclonal antibodies were immobilized onto a CM4 chip (Cytiva #BR100534) using amine coupling chemistry (Human Antibody Capture Kit, Cytiva #BR100839). The immobilization steps were carried out at a flow rate of 25 μL/min in 1×HBS-EP+buffer (Cytiva #BR100669). The sensor surfaces were activated for 7 min with a mixture of N-hydroxysuccinimide (NHS, 0.05 M) and 1-ethyl-3-(3-dimethylaminopropyl)-carbodiimide (EDC, 0.2 M). The anti-Fc polyclonal antibodies were injected over all 4 flow cells at a concentration of 25 μg/mL in 10 mM sodium acetate, pH 4.5, for 7 min. Ethanolamine (1 M, pH 8.5) was injected for 7 min to block any remaining activated groups. Approximately 6,000 response units (RU) of capture antibody was immobilized on each flow cell.
(§2) Off-rate and kinetic binding experiments were performed at 25° C. using 1×HBS-EP+buffer. Antibodies were injected over the anti-Fc surface at a concentration of 3 μg/mL for 12 seconds at a flow rate of 10 μL/min on flow cells 2, 3 and 4, followed by a buffer wash for 30 seconds at the same flow rate. Single point off-rate analysis was carried out using an antigen concentration of 100 nM. […] After capturing ligand (antibody) on the anti-Fc surface, the analyte (human TF, Lake Pharma; cynomolgus TF, Sino Bio #90885-C08H; mouse TF, R&D Systems #3178-PA) was bound for 180 seconds, followed by a 420 second dissociation phase at a flow rate of 50 μL/min. Between each ligand capture and analyte binding cycle, regeneration was carried out using 2 injections of 10 mM glycine pH 2.0 for 30 seconds at 30 μL/min, followed by a 30 second buffer wash step.
(§3) The data were fit with the Biacore T200 Evaluation software, using a 1:1 Langmuir binding model. KD (affinity, nM) was determined as a ratio of the kinetic rate constants calculated from the fits of the association and dissociation phases.
(§4) Anti-Fc polyclonal antibodies were immobilized onto a CM4 chip (Cytiva #BR100534) using amine coupling chemistry (Human Antibody Capture Kit, Cytiva #BR100839). The immobilization steps were carried out at a flow rate of 25 μL/min in 1×HBS-EP+buffer (Cytiva #BR100669). The sensor surfaces were activated for 7 min with a mixture of NHS (0.05 M) and EDC (0.2 M). The Anti-Fc antibodies were injected over all 4 flow cells at a concentration of 25 ug/ml in 10 mM sodium acetate, pH 4.5, for 7 min. Ethanolamine (1 M, pH 8.5) was injected for 7 min to block any remaining activated groups. Approximately 6,000 response units (RU) of capture antibody was immobilized on each flow cell. Off-rate and kinetic binding experiments were performed at 25° C. using 1×HBS-EP+buffer. Antibodies or ADCs were injected over the anti-Fc surface at a concentration of 3 μg/mL for 12 seconds at a flow rate of 10 μL/min on flow cells 2, 3 and 4, followed by a buffer wash for 30 seconds at the same flow rate. […] After capturing ligand (antibody) on the anti-Fc surface, the analyte (human TF, Lake Pharma; cynomolgus TF, Sino Bio #90885-C08H; mouse TF, R&D Systems #3178-PA) was bound for 180 seconds, followed by a 420 second dissociation phase at a flow rate of 50 μL/min. Between each ligand capture and analyte binding cycle, regeneration was carried out using 2 injections of 10 mM Glycine pH 2.0 for 30 seconds at 30 μL/min, followed by a 30 second buffer wash step. The data was fit with the Biacore T200 Evaluation software, using a 1-1 Langmuir binding model. KD (affinity, nM) was determined as a ratio of the kinetic rate constants calculated from the fits of the association and dissociation phases.

**Q.** B1 was tested. Which “Biacore human TF kinetics ka” value did it give?
**A.** 57200 M⁻¹ s⁻¹

**Q.** What about the “Biacore human TF kinetics kd” value of the same molecule?
**A.** 0.000418 s⁻¹

**Q.** How did the “Biacore human TF kinetics ka” value turn out when B2 was run?
**A.** 54000 M⁻¹ s⁻¹

**Q.** And the “Biacore human TF kinetics kd” value?
**A.** 0.000422 s⁻¹

**Q.** Which results are given for B3?
**A.** Biacore human TF kinetics ka: 71200 M⁻¹ s⁻¹; Biacore human TF kinetics kd: 0.00124 s⁻¹

**Q.** Which “Biacore human TF kinetics ka” value does the source give for B4 here?
**A.** 62500 M⁻¹ s⁻¹

**Q.** What about the “Biacore human TF kinetics kd” value of the same molecule?
**A.** 0.000865 s⁻¹

tested on: primary human keratinocytes; test: ADC cell killing on primary adult human keratinocytes (WST-8); type: cell-based; conditions: Table 30, 120 hours, read-out: Keratinocyte Killing EC50
Method: To evaluate the cytotoxicity effects of the ADC on the adult primary keratinocytes, a total of 2000 keratinocytes in a volume of 50 microliters were seeded in a 96-well flat bottom cell culture plate coated with keratinocyte coating matrix (Thermo Fisher Scientific) the day before the actual assay starts. ADCs were formulated at 2× starting concentration in cell culture medium and filtered through SpinX 0.22 micron cellulose acetate filtered 2 mL centrifuge tubes (Corning Costar). Filter sterilized samples were serial diluted (1:3) under sterile conditions and added onto cells in triplicates. Plates were cultured at 37° C. in a CO2 incubator for 120 hours. For cell viability measurement, 10 microliters of WST-8 reagent (VWR) were added into each well and plates were incubated at 37° C. in a CO2 incubator for 4 hours. […] Data was fitted with non-linear regression analysis, using log (inhibitor) vs. response, variable slope, 4-parameter fit equation using GraphPad Prism. Data was expressed as % relative cell viability vs. dose of free linker-warhead or ADC in nanomolar with error bars indicating the Standard Deviation (SD) of the triplicates.

**Q.** With B1 as the molecule, how does the EC50 read?
**A.** > 0.1 µM

tested on: cynomolgus TF; test: Biacore off-rate and kinetic binding, cynomolgus TF; conditions: Table 12; 25° C., 1:1 Langmuir
Sequence (as listed by the source): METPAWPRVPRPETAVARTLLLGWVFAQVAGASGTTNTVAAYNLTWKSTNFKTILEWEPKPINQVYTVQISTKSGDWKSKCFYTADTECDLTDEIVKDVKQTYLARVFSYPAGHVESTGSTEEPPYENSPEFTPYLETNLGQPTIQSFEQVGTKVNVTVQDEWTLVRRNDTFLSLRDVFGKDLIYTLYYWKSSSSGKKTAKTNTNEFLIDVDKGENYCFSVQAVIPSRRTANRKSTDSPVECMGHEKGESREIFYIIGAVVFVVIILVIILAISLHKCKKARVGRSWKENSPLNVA
Method: as §1, §2, §3, §4

**Q.** What does the source list for B1?
**A.** Biacore cynomolgus TF kinetics ka: 72400 M⁻¹ s⁻¹; Biacore cynomolgus TF kinetics kd: 0.00113 s⁻¹

**Q.** B2 was tested. Which “Biacore cynomolgus TF kinetics ka” value did it give?
**A.** 82700 M⁻¹ s⁻¹

**Q.** And the “Biacore cynomolgus TF kinetics kd” value?
**A.** 0.00166 s⁻¹

**Q.** For B3, which “Biacore cynomolgus TF kinetics ka” value is on record?
**A.** 121000 M⁻¹ s⁻¹

**Q.** And the “Biacore cynomolgus TF kinetics kd” value?
**A.** 0.00735 s⁻¹

**Q.** With B4 as the molecule, how does the “Biacore cynomolgus TF kinetics ka” value read?
**A.** 80800 M⁻¹ s⁻¹

**Q.** What about the “Biacore cynomolgus TF kinetics kd” value of the same molecule?
**A.** 0.00241 s⁻¹

tested on: primary human keratinocytes; test: Cell binding on primary adult human keratinocytes (flow cytometry); conditions: Table 29, primary human keratinocytes
Method: Since TF is expressed in human skin, anti-TF antibody 2900-A02 and 2842-B01-Hc3/Lc2 were tested in cell binding assay on primary adult human keratinocyte cells purchased from Thermo Fisher Scientific. Keratinocytes were cultured in defined keratinocyte culture medium (EpiLife Medium, Thermo Fisher Scientific) supplemented with growth supplement S7 (S0175 from Thermo Fisher Scientific) and Penicillin/Streptomycin on plates coated with keratinocyte coating matrix (Thermo Fisher Scientific).
To evaluate antibody binding activity of the anti-TF antibodies on the adult primary keratinocytes, a total of 100,000 keratinocytes per well were incubated on ice with serial dilutions of anti-TF antibodies in FACS buffer (PBS buffer supplemented with 1% bovine serum albumin, 0.05% sodium azide) for 60 minutes. Cells were washed twice with ice-cold FACS buffer and then incubated with 5 microgram/mL Alexa 647 labeled donkey anti-human Fc antibody (Jackson ImmunoResearch, West Grove, PA) on ice for another 60 minutes. Unstained cells and cells stained with secondary antibodies alone were used as controls. Samples were then washed twice using FACS buffer and analyzed using an Attune flow cytometer (Thermo Fisher). Geometric mean fluorescence intensities were fitted using non-linear regression analysis with one site specific binding equation on GraphPad Prism.

**Q.** Which “Keratinocyte Binding Bmax” value does the source give for B1 here?
**A.** 151831
